Experiment: soluble on expression in E. coli; label from the status in PepcDB or PDB records

Sequence | soluble on expression in E. coli
GMNNIQAIRKKVETQIDDLQNKTDEIAEFNQAKVLDAFQENKVSDFHFHPSTGYGYDDEGRDTLERVYATVFKTEAALVRPQIISGTHAISTVLFGILRPDDELLYITGQPYDTLEEIVGIRKQGQGSLKDFHIGYSSVPLLENGDVDFPRIAKKMTPKTKMIGIQRSRGYADRPSFTIEKIKEMIVFVKNINPEVIVFVDNCYGEFVEYQEPPEVGADIIAGSLIKNPGGGLAKTGGYIAGKEALVDLCGYRLTTPGIGREAGASLYSLLEMYQGFFLAPHVTAQAIKGARFTAAMLAEFGVEADPVWDAPRTDLIQSVSFHNKEKMVAFAQAIQAASPVNAHVLPIGAYMPGYEDDVIMAAGTFIQGASLELTADGPIREPYQLYVQGGLTYEHIKIAVTRAIQKIV | soluble
MGSDKIHHHHHHMSICIKDQIQNMNIVIGCTVGCAYCYARNNVKRWHMIDDFAAPEFFPGKLKMMEKKRPQNFLLTGMSDLSGWKPEWRNVVFAKIRENPQHQFLFLTKRPDLLDFDTDLENAWFGVTVTRKAELWRIDALRKNVRAKHYHVTFEPLFDDPGTVDLSGINWIVVGTMTGAQSRKIHTEPEWAWSLADQAHKLGIPVFMKEDIVPIIGDENMIQEMPEEFNKVLEVQKSWKK | not soluble
MGSDKIHHHHHHMEIVLAKRAGFCFGVKRATQMAFEAAEKEGETFTLGPIIHSPQVVQRLEGMGVKVLSDLEGIGNGTVIIRSHGVTSAELEDAVRRQLEVVDATCPFVKKAQEHVKRLSHDGYTVVVVGDADHPEVQGIVSYAEGPVHVVGSGEEAARLPNMKKVGVVAQTTQSFETLKNVVKECLLKGGEIRVFNTICDATAVRQDEAKALAREVDCMIVIGGFNSANTKRLAEVCSELQPRTYHIETAQELDASWFQGVERVGVTAGASTPKWLIDEVIERIQEFDNKKKG | not soluble
MSQRPTSSHDSSAPHHIPVDDCLTYDTGYRPNLPGQRTWWVFCPVTGAFDNSYALLGAMIECVARGQATLAPAWDRTFAGGIWYDFDCGADVLDGRLLMDMAVDDMQRRIERYMSTNDGQMGCKPALGFR | not soluble
KTFEPTNPFFRVVLRPSYLYRGCIMYLPSGFAEKYLSGISGFIKVQLAEKQWPVRCLYKAGRAKFSQGWYEFTLENNLGEGDVCVFELLRTRDFVLKVTAFRVNEYV | not soluble
MAHHHHHHMNVKVEEGHPYNSYAEIKKRKTKKKKYIQNGRAGNNVEDNVDDNVEDNVGNNVDDNVEDNVGNNVDDNVDNNVDDNVKNRLSPKNNEKSNPRHKKKNTSKSPICDGRKKDIEFHTLYESDEKNNMVSRRSSVESIGEEKDMKADVKKNDINYKVKLNTLMLQSYLHKSYDKVSNILKKTSQTFMKKSLSYETEKVDDKTGNNIQNNNNEKNETHGNINYDQDDFVQNFNKIFNNMIENPTNDLSEEEKKFFEQNSQCINKMLHENASCQKNKKEKILKKYKKKIIENKDISSLYDKFKELLDERTLLFKLIIYYKNINYNYKQHIDKIQHSYDILISENEQLNLNNITLKKHIDLFRKGDNIKRDDNEYVK | soluble
MGSDKIHHHHHHMGLEDLYLSWPKWFSEALARYSSLEGALEGVEEIYYCGMGGSGAAGDYIEALLSIYAPQGPEFRVVKDFRPPRPPRHRGYGLVLASYSGNTLETVECGSLLSPAAGRVVAVTSGGRLLEMAKERGWLVARLPGGILPRVSFPWMLAASTAMLSGALGVDLEALKRLAGGLDTQGLKGEAERLAGFISRYRIASLVTCGPGIPLAVRLKNELAENAKMPSRLEIYPESSHNDIVALEAAEGLYGAVFIWIEHEGSLCPAVLDVVEGIYREYGVDTISIESSARGGPNATVAEYLSRTLVFGLASVRLALMRGFNPEETPPIDKYKRRLGEALRSQA | not soluble
MGSDKIHHHHHHMGIRAGESGNSLSKALLEIEKEQPAPCYLLYGDAEYEISDAFTKIIDALLSPEDQALNLFVLDGEDEDPERIGENLMTPPLLPGRKVVAVRRTQLFSSRKTLKDLVKRIREQLNGKPQQAAKTFMTFLSLAGWNLEDFKGDGWKAISDKDWQTTVEGDAGEDRIKWLPQVVEVCVDLGLKGRSATGGGTDHLEAILRDGLPAGNVLLLTAESVDKRKKLFKTISELGRVLPFVVEKGEARQKNTLMDSARDLLATRGKRMSSGAWEVLGRKTGFQLRNSMAALEKLITYTGERKTIEVSDVEEVISRTREDKVFDLTAALAEKNLKGALSVLRSLREQGIHSLVILSMIVREMRLLLHARQLRNEGALPGYQPRMDYGRFQKSIYPTVKGWAGQAGDVHIELADSHPYVVFNILRNSENFSEKRLKRHLEDLLAMDLAMKSTAKDADLMLERFLIDVCRP | not soluble
FSKTQRWAEPGEPICVVCGRYGEYICDKTDEDVCSLECKAKHLLQVKEKEEKS | soluble
MTTTLKAIVRKPRTDGLYAVYIRIVHNRKPGYIKTNKIVDADHISKDNEPTDPVVNEYCSMLVRQYTDRLNRANTTLWSVSEIIEYLLKTDEEVCFSDYSRMFIRQMRLDGHERNAKNYQLAVAHLERYMGTTRVMFGHLTAAVLKKWIESLSKTHRAKEMYPTNVRMIFRSAIADMNDDEKGIQRIKFDPWVKVQIPKSEPSEKLAISAEECREFFNRPLPRTKMLSSLPELGRDVALLSLCLGGINTVDLYNLKKSDYHDGIIGYKRAKTKHSRKDEAYIEMRVEPFIQDTFNKYLSEEEDEFLFTFHQRYGNTDSFNANVNIGIRKICMDMGMTNKEDFYCFYTFRHTWATIAQNDCNANLYEVAFGMNHSHGFKVTRGYVKVDFTPAWALNARIIDFIFFSNKPSKQGLAKDLDESGDKMFRISAKMMIYARAYFKGEVIAEFTDIGFNNVDEVLSRIVKMFPKDIPVGCTVQIRLTNCDNHKEVVYERSKGKGF | not soluble
MGSDKIHHHHHHMTQHPFISRVAVRNYKSIGYCDVNLRPLTYLVGHNGAGKSNFMDALHFVCDALSYSLDSALNERGGINEVRRRSGGHPTHFALRVEFVMQSGQAGRYGFVIGALKNGGYEVQREECVVAGIGKGPFFRIEKGKLRDSSETTFPSVTADRLALVAASGLTAFRPVFDALTAMGFYNLNPKLMRELQKPQDGRLLRPAGENIASVIGHLEKVAPAQMALIQEYLHSVAPMVHGVERKPIGPMETLEFRQDMAGSKHPWRFLAQNMSDGTLRALGVLSALLQGNVDYSPTLIGIEEPETALHPAASAALREALVRASETTQVLVTSHSPDLLDDHSIDADAVLAVVSEAGETKVAPLDEGSRQVMRDHLFSAGELLRMNQLAPDRASLEQQDKAASGDLFGETESV | not soluble
SNAGMTGFVINTRRAPFDDWRLREALLLAFNFEFINDTVTGGVMPRITSYFSGTDLAYRPGTASGREAELLAPFAADLPPGTLEGYALPQGDGTARNRTNLRRAAQFLEQAGFRIEQGQLLGPDGAPLALRFLLRQGDSDMQTVLEIYTRALERLGIAAQIEKVDNAQYTARVAELDFDLTPFRRDLSLSPGNEQRLYWGSHSAGQPGTRNLMGAASPAIDAMIDRMLAATTEDELTAATRALDRVLTAGRYVIPIWR | soluble
MIQFKNISKHYQLKGQTIHALDQINLDIPAGSIFGIIGYSGAGKSTLIRLINLLERPTHGQIIINQKDFTALNAQSLRQERANIGMIFQHFNLLQTKTVAANIEMPLKLLGYSKIEREKRLMELLDFIDLTHKKDAFPDELSGGQKQRVGIARALANHPKILLCDEATSALDPQTTKSVLALLKKINKEQGITIVMVTHEMDVIESICDHVAVMESGHVIETGPTVEIFSNPQHPTTKTFIQTVLQQHLPVNILSKLEHQHHHSIYRLQFLGKSAQEPVIQSMIKQFDISLNILFANMTEIDGTVIGQMFVQLLGDDTLIQQAIEFLERHGVSVNQSGEQV | not soluble
MSLEVISLSEKKGFNFNIIKNDPLDGHKGTNIGSISLDNIAPVFIDVANKEAFIDIGGMHARAKVEKGVKWITDKAAVEGDEAKEYWLCWVTTERNEQGPYYAGLTACYLLVNKAIRRGYKSMPEHVNMMDKSMKHHIIIDQIGDENKAILKDFLMNHDEGMWKHSSDALHQAFNEGHHHHHH | soluble

Source: the DeepSol protein solubility set
